# Data taken from US20230357414A1 (SYNTHEKINE, published 2023).
# T1: extracellular domain of mouse IL12Rb2 (614 amino acids, amino acids 24-637 of the mIL12Rb2 precursor, UniProt … (mouse, UniProt P97378 24-637))
# T1 construct: also called mIL12Rb2 ECD; mIL12Rb2 ECD antigen
# T1 sequence: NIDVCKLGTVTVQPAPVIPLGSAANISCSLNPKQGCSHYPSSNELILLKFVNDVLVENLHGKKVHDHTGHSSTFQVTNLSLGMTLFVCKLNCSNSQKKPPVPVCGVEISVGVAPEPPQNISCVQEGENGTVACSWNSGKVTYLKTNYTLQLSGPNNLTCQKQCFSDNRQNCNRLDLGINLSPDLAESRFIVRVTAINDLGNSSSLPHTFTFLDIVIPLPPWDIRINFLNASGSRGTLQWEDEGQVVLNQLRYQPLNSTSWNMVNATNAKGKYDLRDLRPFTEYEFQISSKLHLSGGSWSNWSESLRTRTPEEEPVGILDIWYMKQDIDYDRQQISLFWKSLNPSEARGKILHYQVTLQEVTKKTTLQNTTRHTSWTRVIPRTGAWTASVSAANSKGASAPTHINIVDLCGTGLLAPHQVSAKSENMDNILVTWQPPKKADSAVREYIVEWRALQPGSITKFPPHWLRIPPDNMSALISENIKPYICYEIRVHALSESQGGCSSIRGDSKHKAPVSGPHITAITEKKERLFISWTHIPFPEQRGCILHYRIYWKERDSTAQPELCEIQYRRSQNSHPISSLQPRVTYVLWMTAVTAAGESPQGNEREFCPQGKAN
# Molecular target: T1, extracellular domain of mouse IL12Rb2 …
# Assay: periplasmic extract ELISA on antigen-coated plate; positive if A450 at least threefold over PBS-coated control
# Description: Upon completion of the biopanning of Example 3, three 96-well plates of individual phage clones were isolated in order to perform periplasmic extract ELISA (PE-ELISA) on IL12Rb2 coated plates to identify positive VHH binders that selectively bound IL12Rb2. A 96-well plate was coated with IL12Rb2 and PBS under the same conditions. Next, wells were blocked at 37° C. for 1 h. Then, 100 μl of extracted antibodies was added to each well and incubated for 1 h. Subsequently, 100 μl of anti-tag polyclonal antibody conjugated to HRP was added to each well and incubated at 37° C. for 1 h. Plates were developed with TMB substrate. The reaction was stopped by the addition of H2SO4. Absorbance at 450 nm was read on a microtiter plate reader. Antibodies with absorbance of the antigen-coated well at least threefold greater than PBS-coated control are VHHs that specifically bind to IL 12Rb2. Positive clones were sequenced, and sequences analyzed to identify unique clonotypes
row,Binder,binding result
1,"mIL12Rb2 VHH15 (VHH, Camel VHH, tested as a periplasmic extract of a phage clone; also called anti-mouse IL12Rb2 VHH15; not shown: HA/His tag encoded by the pMECS phagemid) VHH: QVQLQESGGGSVQDGGSLRLSCAASGDIYARNCMGWFRQAPGKEREKIAVADTGGRSPYYADSVKGRFTISRDNAKNTVDLQMNSLKPEDTAVYYCAAGPLVPVVNTAARCVYEYWGQGTQVTVSS",binds
2,"mIL12Rb2 VHH14 (VHH, Camel VHH, tested as a periplasmic extract of a phage clone; also called anti-mouse IL12Rb2 VHH14; not shown: HA/His tag encoded by the pMECS phagemid) VHH: QVQLQESGGGSVQAGGSLRLSCAASGATNSNRHMGWFRQAPGKEREGVAAIYTGYTGGGNTYYADSVRDRFTISQDNAKNTLYLQMNSLTPEDTAMYYCAADLTRWYSGGWRDPRGYKYWGQGTQVTVSS",binds
3,"mIL12Rb2 VHH16 (VHH, Camel VHH, tested as a periplasmic extract of a phage clone; also called anti-mouse IL12Rb2 VHH16; not shown: HA/His tag encoded by the pMECS phagemid) VHH: QVQLQESGGGSVQAGGSLRLSCAASGATNSNRHMGWFRQAPGKEREGVAAIYTGYTGGGNTYYADSVKDRFTISQDNAKNTLYLQMNSLTPEDTAMYYCAADLTRWYSGGWRDPRGYKYWGQGTQVTVSS",binds
4,"mIL12Rb2 VHH10 (VHH, Camel VHH, tested as a periplasmic extract of a phage clone; also called anti-mouse IL12Rb2 VHH10; not shown: HA/His tag encoded by the pMECS phagemid) VHH: QVQLQESGGGSVQAGGSLRLSCAASGYTFSNHHMGWFRQAPGKEREGVAAIYTGAGNIYYADSVKDRFTISKDTAKNTLYLQMNSLTPEDTGMYYCAADLTRWYSGGWRDPRGYKYWGQGTQVTVSS",binds
5,"mIL12Rb2 VHH13 (VHH, Camel VHH, tested as a periplasmic extract of a phage clone; also called anti-mouse IL12Rb2 VHH13; not shown: HA/His tag encoded by the pMECS phagemid) VHH: QVQLQESGGGSVQAGGSLRLSCAVSGYTFSNHHMGWFRQAPGKEREGVAAIYTGAGNIYYADSVKDRFTISKDTAKNTLYLQMNSLTPEDTGMYYCAADLTRWYSGGWRDPRGYKYWGQGTQVTVSS",binds
6,"mIL12Rb2 VHH12 (VHH, Camel VHH, tested as a periplasmic extract of a phage clone; also called anti-mouse IL12Rb2 VHH12; not shown: HA/His tag encoded by the pMECS phagemid) VHH: QVQLQESGGGVVQPGGSLRLSCAASGYTFSNHHMGWFRQAPGKEREGVAAIYTGAGNIYYADSVKDRFTISKDTAKNTLYLQMNSLTPEDTGMYYCAADLTRWYSGGWRDPRGYKYWGQGTQVTVSS",binds
7,"mIL12Rb2 VHH11 (VHH, Camel VHH, tested as a periplasmic extract of a phage clone; also called anti-mouse IL12Rb2 VHH11; not shown: HA/His tag encoded by the pMECS phagemid) VHH: QVQLQESGGGPVQAGGSLRLSCAASGYTFSNHHMGWFRQAPGKEREGVAAIYTGAGNIYYADSVKDRFTISKDTAKNTLYLQMNSLTPEDTGMYYCAADLTRWYSGGWRDPRGYKYWGQGTQVTVSS",binds
